Test system: MS2 coat protein
Assay: apparent KD of MS2 coat protein; designed switch direction (-1 OFF switch, 1 ON switch): -1; higher = weaker reporter binding
How it was run: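 Designed RNA switches sharing common flanks were transcribed on Illumina chips by stalled E. coli RNA polymerase. They were titrated with SNAP-549-labelled MS2 coat protein, from 0.7 or 1.5 nM doubling to 3 µM, in Tris-HCl pH 7.5 buffer with KCl, MgCl2, BSA, DTT, tRNA and Tween-20. Titrations ran without input, with 200 uM small-molecule ligand, or with an oligonucleotide input. The apparent KD of each design is the median over its clusters, after curve-fitting of normalised cluster fluorescence.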

[1] = Eterna round: R95, input ligand: microRNA oligo, concentration not stated
[2] = input ligand: microRNA oligo, concentration not stated
[3] = Eterna round: R95, input ligand: FMN 200 uM
[4] = Eterna round: R95, input ligand: none

| Sequence | apparent KD of MS2 coat protein [1] [nM] | apparent KD of MS2 coat protein [2] [nM] | apparent KD of MS2 coat protein (input ligand: FMN 200 uM) [nM] | apparent KD of MS2 coat protein (input ligand: none) [nM] | apparent KD of MS2 coat protein [3] [nM] | apparent KD of MS2 coat protein [4] [nM] |
| --- | --- | --- | --- | --- | --- | --- |
| CUUUUGUGAGGAUAUUAGUAGUAAAAAAAUAAAAUUACUACUGAGAAGGCACAUGAGGAUCACCCAUGUUCCUC [salish99_ex4_r3_036] (puzzle: Exclusion 4) | 33.2 |  |  |  |  |  |
| GUCAGCUCGUCAGGAUAUACAUGAUAGAUCGAUUAAUUAAUUAAUUUAACAUGAGGAUCACCCAUGUAGAAGGGACGAGCUGAU [ENG2/1-B2] (Eterna round: R96, puzzle: Exclusion NG 2) |  | 59.2 |  |  |  |  |
| AAGACACAUGAGGAUCACCCAUGUGAGGAUAUUUGAUGCGUACCUACAGGACUGCGAUAAAGAAGGCAUAAGGG [Eternabot (L2) Solution 80] (Eterna round: R97, puzzle: Exclusion 1) |  |  | 50.3 | 17.7 |  |  |
| GUACUAGAAUAUCAGUCGCACAUGAGGAUCACCCAUGUCAUGGGUAGAUAAAUAAAUAAAGAUACUGCUCGUCUUAU [Cac sensor turnoff var1 sub1] (Eterna round: R97, puzzle: Sensor, turn-off variant 1) |  |  | 277 | 399 |  |  |
| AUACGCCAGGUAGGAUAUAGUACGUCGGCAACAUGAGGAUCACCCAUGUGGCCUCGUGUCUGGCACUAGAAGGGCCGAGGCCUU [Raatalave] (Eterna round: R96, puzzle: Exclusion NG 2) |  | 26.2 | 33.5 | 30.9 |  |  |
| GAUGUGGGUUUCCGGAGUAACAUGAGGAUCACCCAUGUAGAAGUUGGAGGGAUCAAGCUUUUUGGUCGUCAUAUGUG [JR_SV3TOV1_Sub052] (puzzle: Sensor v3, turn-off variant 1) | 246 |  |  |  | 288 | 422 |
| GUAGAGUAAGGAUAUGGUGAAUAGGAUAGAAUGGUUAGAAAUCAGAAGGUACAUGAGGAUCACCCAUGUAAUGU [Excluse me!!!! 15 - Jieux - Exclusion 4] (puzzle: Exclusion 4) | 21 |  |  |  |  |  |
| UAAGGGUGCGUAGGAUAUCGCGGCCGAAUAAAGCGAGAAGGACGCCCUAAUGGGUCGUCCAACAUGAGGAUCACCCAUGUAUAC [Uslaarus] (Eterna round: R96, puzzle: Exclusion NG 1) |  | 31.2 | 55.4 | 41.5 |  |  |
| AAGGGUACUUUCGGAACGACAUGAGGAUCACCCAUGUAUACUGAGGAUAUCUACUACUAAGGACGGGAGAAGGCAGUGUAAUGU [Ex NG3 #77] (Eterna round: R96, puzzle: Exclusion NG 3) |  | 13.6 |  |  |  |  |
| AAUUUACAUGAGGAUCACCCAUGUGAGGAUAUUGUAUAUUUAUAGAAAUGUGGGUGUGCAAGAAGGCACAUAGG [Alacar 2] (Eterna round: R97, puzzle: Exclusion 1) |  |  | 134 | 63.6 |  |  |
| GAGUUACAUGAGGAUCACCCAUGUGAGGAUAUGAGUCAGUCACGGUGACGUGGCUGACUCAGAAGGCACAAUGG [Mat - Exclusion 1 - JL Mod - D46] (Eterna round: R97, puzzle: Exclusion 1) |  |  | 256 | 380 |  |  |
| AACCUGAGGCAAAGCUUUAGGUGUACAUGAGGAUCACCCAUGUAGGAUAUGGUAGGCAAAGCUUACCAGAAGGACAUUGGCGUA [Mat - Exclusion NG 3 - Mod of JL - D41] (Eterna round: R96, puzzle: Exclusion NG 3) |  | 93.8 | 418 | 119 |  |  |
| UUUUAACAUGAGGAUCACCCAUGUGAGGAUAUCGAAAUUUAUAUUAAUAUUUAUUUUUCGAGAAGGCACAUUUU [JMF 65] (puzzle: Exclusion 1) | 157 |  |  |  |  |  |
| GCUGCGCGAGGAUAUGCGGUUUGCGCUGUGGCCCGUGGCGUACAUGAGGAUCACCCAUGUAGAAGGCGUGUGGG [Apr-15 SS2-55] (puzzle: Exclusion 2) | 18.6 |  |  |  |  |  |
| GGUACUCAAAGAGUACCAAUACGAACAUGAGGAUCACCCAUGUAGGAUAUGCUACUCAAAGAGUAGCAGAAGGAUAUGAUCGAU [Far Half Aptamer v14] (Eterna round: R96, puzzle: Exclusion NG 3) |  | 27.9 | 45.6 | 40.6 |  |  |
| UCAUGUUUAGAGGAUAUGAUUACUCUAGAGUGAUCAGAAGGCUAGACAUGAGGAUCACCCAUGUCAGAACAUGG [Exclusion 6 - B - 17:c] (puzzle: Exclusion 6) | 21.5 |  |  |  | 27.5 | 29.1 |
| UUCCUGUCAGGAUAUGACUAGAGGCACGAAAGUGUGUUUAGUUAGAAGGGACAUGAGGAUCACCCAUGUAGUCC [Bring Us a Shrubbery-20] (puzzle: Exclusion 4) | 21.9 |  |  |  |  |  |
| ACAUGAGGCGAAGGAUAUCUUUAGAGGAUUACCAGAGAAGGUCGACAUGAGGAUCACCCAUGUACAUGAGGGUCUUGAAUGUUA [9th something] (Eterna round: R96, puzzle: Exclusion NG 1) |  | 199 | 245 | 250 |  |  |
| UAAUAAAGGGUAGGAUAUGCCGAACAAACACGAGCAGAAGGACCAAAACACUACUUGAGGAUCACCCAAGUGUCCUUCCGUGGU [Mutated MS2 EX1.6] (Eterna round: R96, puzzle: Exclusion NG 1) |  | 13.2 | 52.4 | 17.2 |  |  |
| UUAUUAAUUAAGACUGCAAGAUCACAUGAGGAUCACCCAUGUCAGGAUAUCAGCUCGAUUAGAGCUGAGAAGGGACAAGCAGUC [ExNG3/15-A1] (Eterna round: R96, puzzle: Exclusion NG 3) |  | 112 | 334 | 99.6 |  |  |
| UCUAUUUUGCGAGGAUAUCGACCAUUCCUCUUUACAUGAGGAUCACCCAUGUUCUUUUUCUACAACGAGAAGGCGCUCUAAGUU [JR_ExcNG2_Sub061] (Eterna round: R96, puzzle: Exclusion NG 2) |  | 65 | 71.9 | 59.1 |  |  |
| AGAAGUAGUAACCGAUCCUACAUGAGGAUCACCCAUGUAGCGGGACGUGCACGCGAAGCUCGUCAGACUACCAGAUG [salish99_TOv1_r3_024] (puzzle: Sensor v3, turn-off variant 1) | 26.7 |  |  |  | 27.2 | 28.6 |
| AGUACUAACACGAAAGUGUUAGUACUGUAGGUUUGUGUUACAUGAGGAUCACCCAUGUCCUCAUAAGCUCGUCUUGU [Mat - Sensor v3 - Turn-off var 2 - D96] (puzzle: Sensor v3, turn-off variant 2) | 152 |  |  |  | 380 | 368 |
| AAACACACAGGAUAUGAGAGGCGGUACAUGAGGAUCACCCAUGUCCUCGGAAAUCAGCGUUCAGAAGGGUGCGGUG [Eternabot (Original) Solution 36] (Eterna round: R97, puzzle: Exclusion 5) |  |  | 457 | 171 |  |  |
| AGGGAAGAGUGAGGAUAUGGAAAUUUGGUGAGAACAUGAGGAUCACCCAUGUGGAAACAAGAAAAUUAGAAGGUAUAGGGAGGG [AK ExNG2-1.2] (Eterna round: R96, puzzle: Exclusion NG 2) |  | 45.3 | 48 | 61.3 |  |  |
